Results on 1 molecule are retold here after paper PMC9628938, “DED Interaction of FADD and Caspase-8 in the Induction of Apoptotic Cell Death” (Journal of Microbiology and Biotechnology, 2022).

Experiment in all cases: SPR; Biacore T100; FADD DED amine-coupled to CM5 chip; caspase-8 DEDs 250 to 5,000 nM as analyte in HBS-EP+ (10 mM HEPES pH 7.4, 150 mM NaCl, 3 mM EDTA, 0.05% P20), 25°C; apparent KD
Common to all, as to conditions: both partners purified
For orientation: In SPR one partner is held on a chip, and binding of the other changes the refractive index at the surface.

Experiment [1] addresses T1, caspase-8 DEDs (residues 1-188) I128A, His-tagged (human, UniProt Q14790 1-188, I128A).
T1 construct: human caspase-8, tandem death-effector domains, residues 1-188; also called Caspase-8 DEDs (I128A); source: E. coli BL21(DE3), purified (Ni-NTA, gel filtration)

Experiment [2] has as its target T2, caspase-8 DEDs (residues 1-188), His-tagged, wild type (human, UniProt Q14790 1-188).
T2 construct: human caspase-8, tandem death-effector domains DED1 and DED2, residues 1-188; Cloned in pET-28a; also called His-caspase-8 DEDs (1-188); wild-type caspase-8 DEDs; source: E. coli BL21(DE3), purified (Ni-NTA, gel filtration); also co-expressed with FADD DED in E. coli and co-purified

The target in experiment [3] is T3, caspase-8 DEDs (residues 1-188) R5E/I128A, His-tagged (human, UniProt Q14790 1-188, R5E | I128A).
T3 construct: human caspase-8, tandem death-effector domains, residues 1-188; also called Caspase-8 DEDs (R5E/I128A); source: E. coli BL21(DE3), purified (Ni-NTA, gel filtration)
T3 sequence (Q14790 1-188 R5E/I128A): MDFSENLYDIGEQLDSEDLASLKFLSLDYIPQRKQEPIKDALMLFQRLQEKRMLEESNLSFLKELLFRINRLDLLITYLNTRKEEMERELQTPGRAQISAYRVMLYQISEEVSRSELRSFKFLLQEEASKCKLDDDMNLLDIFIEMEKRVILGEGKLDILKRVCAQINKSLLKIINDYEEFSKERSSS

T2 sequence (Q14790 1-188): as the sequence (Q14790 1-188 R5E/I128A) above, with E5R, A128I counted along it
T1 sequence (Q14790 1-188 I128A): as the sequence (Q14790 1-188 R5E/I128A) above, with E5R counted along it

B1: FADD DED (residues 1-83), His-tagged (domain or fragment, human, UniProt Q13158 1-83, looked up)
chain: MDPFLVLLHSVSSSLSSSELTELKFLCLGRVGKRKLERVQSGLDLFSMLLEQNDLEPGHTELLRELLASLRRHDLLRRVDDFE
notes: human FADD (MORT1), death-effector domain construct, residues 1-83; Cloned in pET-28a; also called wild-type FADD DED; Fas-associated death domain; source: E. coli BL21(DE3), purified (Ni-NTA, gel filtration); also co-expressed with caspase-8 DEDs in E. coli and co-purified
For the molecule B1, the values for the Kd in experiment [1], in experiment [2] and in experiment [3] were 61 nM, 38 nM and 236 nM, respectively.
